Measurements from US20070037211A1 (COUNCIL OF SCIENTIFIC AND INDUSTRIAL RESEARCH CSIR, published 2007).
No end group written: not given here.

Target: T1, Hsp16.3, 16 kDa alpha-crystallin like heat shock protein of Mycobacterium tuberculosis, recombinant … (Mycobacterium tuberculosis, UniProt P9WMK1 1-144)
T1 construct: also called M. tuberculosis Acr; not shown: pQE-8 vector-derived residues flanking the 6xHis tag
T1 sequence: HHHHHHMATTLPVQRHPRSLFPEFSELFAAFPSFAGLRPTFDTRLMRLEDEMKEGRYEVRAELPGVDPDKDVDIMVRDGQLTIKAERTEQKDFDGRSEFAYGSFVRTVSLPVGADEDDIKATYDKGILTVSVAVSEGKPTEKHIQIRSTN
Test: reverse phage ELISA on coated Hsp16.3, anti-M13-HRP, A405

B1: M13 phage clone displaying peptide Seq ID 21 (Tyr-Pro-His-His-Phe-Lys-His-Arg-His-Ile-Pro-Ile), from Ph.D.-12 library (peptide)
peptide: YPHHFKHRHIPI
modifications: also: displayed on M13 phage, fused to coat protein
notes: Tested as whole phage particles in reverse phage ELISA; not shown: M13 coat protein to which the peptide is fused, and the spacer to it
- fold binding over non-specific control BSA: ~3 fold
